# Test results: IntAct's records for PubMed 16432186
# B1: Beta-arrestin-1 (Homo sapiens), P49407-1 (parent)
# chain: MGDKGTRVFKKASPNGKLTVYLGKRDFVDHIDLVDPVDGVVLVDPEYLKERRVYVTLTCAFRYGREDLDVLGLTFRKDLFVANVQSFPPAPEDKKPLTRLQERLIKKLGEHAYPFTFEIPPNLPCSVTLQPGPEDTGKACGVDYEVKAFCAENLEEKIHKRNSVRLVIRKVQYAPERPGPQPTAETTRQFLMSDKPLHLEASLDKEIYYHGEPISVNVHVTNNTNKTVKKIKISVRQYADICLFNTAQYKCPVAMEEADDTVAPSSTFCKVYTLTPFLANNREKRGLALDGKLKHEDTNLASSTLLREGANREILGIIVSYKVKVKLVVSRGGLLGDLASSDVAVELPFTLMHPKPKEEPPHREVPENETPVDTNLIELDTNDDDIVFEDFARQRLKGMKDDKEEEEDGTGSPQLNNR
# Variants of: B1
# Conditions: with src_human SRC
row,Variant,effect of a mutation on the interaction
1,MGDKGTRVFKKASPNGKLTVYLGKRDFVDHIDLVDPVDGVVLVDPEYLKERRVYVTLTCAFRYGREDLDVLGLTFRKDLFVANVQSFPPAPEDKKPLTRLQERLIKKLGEHAYPFTFEIPPNLPCSVTLQPGPEDTGKACGVDYEVKAFCAENLEEKIHKRNSVRLVIRKVQYAPERPGPQPTAETTRQFLMSDKPLHLEASLDKEIYYHGEPISVNVHVTNNTNKTVKKIKISVRQYADICLFNTAQYKCPVAMEEADDTVAPSSTFCKVYTLTPFLANNREKRGLALDGKLKHEDTNLASSTLLREGANREILGIIVSYKVKVKLVVSRGGLLGDLASSDVAVELPFTLMHPKPKEEPPHREVPENETPVDTNLIELDTNDDDIVFEDFARQRLKGMKDDKEEEEDGTGDPQLNNR [S412D],disrupting interaction strength
